Assay results published in the MegaScale stability set (Tsuboyama et al. 2023).

B1: HHH_rd2_0155 (parent)
chain: PPDDERKKAEKAARSGNEEKAREILERLGYSEDEARELAKRLR

Variants of: B1
Test: folding stability dG (cDNA display proteolysis); higher = more stable
Conditions: PBS, room temperature

Folding stability dG [kcal/mol] of substitutions, site by site:
S15: Y 1.55
G29: K 0.226 | D 0.445 | A 0.3 | I 0.244 | N 0.552 | E 0.491 | T 0.143 | Y 0.196 | L -0.221 | V 0.455 | M 0.484 | H 0.665 | Q 0.091 | F 0.708 | S 0.474 | R 0.281 | P -0.509 | W 0.361
S31: H 1.02 | V 0.347 | T 2.13 | R 1.07 | F 0.694 | Y 0.287 | G 1.44 | M 1.03 | A 1.28 | N 1.66 | L 0.779 | D 1.36 | P 1.46 | W 0.564 | E 1.03 | K 1.35 | Q 1.2 | I 0.504
L25: G 0.372 | K -0.071 | H -0.026 | F 2.35 | N 0.253 | M 0.884 | T 0.034 | E 0.37 | I 0.435 | R 0.127 | D 0.2 | Q 0.444 | S 0.333 | V 0.267 | A 0.215 | P -0.039 | Y 1.87 | W 1.64
D33: I 1.87 | G 1.59 | F 1.77 | P 1.55 | S 2.13 | N 1.79 | L 1.85 | V 1.71 | E 2.19 | R 1.79 | W 1.83 | T 1.92 | K 1.92 | M 1.8 | Q 2.09 | Y 1.91 | A 2.25 | H 1.86
K20: Q 1.86 | S 1.61 | I 1.9 | E 2.11 | R 1.89 | L 2.97 | F 1.92 | V 2.05 | H 1.73 | N 1.21 | Y 2.11 | D 1.33 | A 2.1 | W 1.98 | T 1.77 | G 1.66 | P 0.917 | M 2.19
G16: E 0.965 | L 1.54 | K 1.22 | F 1.53 | M 1.33 | S 1.22 | V 0.998 | W 1.42 | N 1.23 | R 1.11 | A 1.15 | Y 1.47 | T 0.813 | H 1.32 | D 1.24 | I 1.2 | Q 1.04 | P 0.825
E19: I 2.05 | W 1.94 | Q 2.05 | Y 1.79 | G 1.6 | T 2.05 | R 2.16 | A 2.3 | K 2.18 | D 2.03 | H 1.7 | P 1.61 | L 2.15 | F 1.91 | S 1.9 | N 1.81 | C 2.27 | M 2.22 | V 1.95
I24: G 0.167 | K 0.671 | H 1.11 | A 0.975 | S 0.659 | E 0.689 | T 0.469 | Q 0.718 | L 1.57 | M 1.43 | N 0.514 | R 0.756 | V 0.856 | P 0.158 | F 1.3 | D 0.375 | Y 1.44 | W 1.38
E18: M 2.61 | H 1.44 | I 2.6 | N 1.17 | Y 2.25 | G 1.19 | F 2.24 | D 1.53 | V 2.3 | W 2.32 | A 1.57 | T 1.8 | R 0.996 | S 1.37 | K 0.82 | P 1.23 | L 2.8 | Q 1.5
E34: G 0.998 | H 1.38 | A 1.78 | F 1.39 | D 1.87 | C 1.92
R22: L 1.4 | Y 1.33 | P 0.374 | N 0.74 | W 1.13 | F 1.09 | G 0.568 | V 2.21 | S 1 | K 1.44 | I 2.21 | M 1.88 | D 0.179 | Q 1.41 | E 0.77 | A 1.58 | T 1.27 | H 0.903
A21: E 0.697 | V 1.27 | G 0.961 | Q 0.924 | K 0.641 | M 1.46 | D 0.869 | C 1.87 | H 0.916 | R 0.974 | Y 1.52 | T 1.08 | F 1.63 | L 1.81 | P 0.632 | I 1.68 | N 0.934 | S 1.23
E26: F 1.47 | H 1.82 | P -0.06 | K 2.41 | D 0.509 | N 1.22 | G 1.5 | R 2.65 | L 2.56 | A 1.73 | Y 1.49 | Q 2.39 | T 1.93 | V 2.61 | M 3.05 | I 2.65 | W 0.866 | S 1.72
E32: W 1.42 | D 1.4 | F 1.96 | V 2 | R 1.96 | H 1.97 | I 1.88 | S 2.08 | Y 1.94 | G 1.49 | A 2.33 | C 1.86 | P 2.48 | Q 1.99 | T 1.93 | L 1.66 | N 1.51 | M 1.78 | K 2.21
L28: F 1.2 | T 0.615 | E 0.577 | K 0.443 | M 2.29 | A 1.54 | Q 0.844 | N 0.822 | I 1.7 | G 0.647 | R 0.697 | S 0.685 | C 1.85 | W 1.47 | H 0.699 | Y 0.983 | D 0.418 | V 0.87 | P 0.261
Y30: M 1.74 | V 0.808 | R 0.36 | W 1.34 | L 1.79 | K 0.407 | H 1.13 | G 0.222 | P 0.57 | I 1.06 | F 1.94 | T 0.175 | S 0.426 | A 0.811 | D 0.243 | E 0.197 | Q 0.238
N17: G 1.08 | Y 1.71 | R 1.46 | M 1.61 | L 1.65 | S 1.4 | Q 1.81 | P 0.962 | I 1.13 | H 1.77 | D 2.42 | K 1.42 | T 0.954 | W 1.98 | F 1.9 | V 0.993 | A 1.4 | E 1.71
E23: L 2.19 | V 1.72 | I 1.93 | M 2.03 | N 1.52 | S 1.73 | A 2.06 | D 1.54 | K 2.12 | P 0.763 | F 1.61 | Y 1.68 | Q 2.18 | W 1.83 | T 1.69 | G 1.4 | H 1.85 | R 2.21 | C 2.35
R27: E 1.1 | A 2.07 | G 1.89 | W 1.44 | L 1.81 | M 1.7 | V 1.01 | H 1.6 | S 1.94 | F 1.39 | Q 1.89 | N 1.7 | P 0.534 | D 0.997 | K 2.14 | Y 1.41 | I 1.28 | T 1.47
